In patent publication US11325966:

How the values were obtained:
Test in all cases: cell-based or functional assay
[1] = biological target: HIV-1 Env of pseudovirus 6540.v4.c1 (HIV-1)
[2] = biological target: HIV-1 Env of pseudovirus T257-31 (HIV-1)
[3] = biological target: HIV-1 Env of pseudovirus 191084 B7-19 (HIV-1)
[4] = biological target: HIV-1 Env of pseudovirus Du422.1 (HIV-1)
[5] = biological target: HIV-1 Env of pseudovirus BJOX009000.02.4 (HIV-1)
[6] = biological target: HIV-1 Env of pseudovirus 263-8 (HIV-1)
[7] = biological target: HIV-1 Env of pseudovirus BJOX015000.11.5 (HIV-1)
[8] = biological target: HIV-1 Env of pseudovirus 6952.v1.c20 (HIV-1)
[9] = biological target: HIV-1 Env of pseudovirus 0815.v3.c3 (HIV-1)
[10] = biological target: HIV-1 Env of pseudovirus CNE19 (HIV-1)
[11] = biological target: HIV-1 Env of pseudovirus HIV-16845-2.22 (HIV-1)
[12] = biological target: HIV-1 Env of pseudovirus CNE8 (HIV-1)
[13] = biological target: HIV-1 Env of pseudovirus SC05_8C11_2344 (HIV-1)
[14] = biological target: HIV-1 Env of pseudovirus T255-34 (HIV-1)
[15] = biological target: HIV-1 Env of pseudovirus HIV-001428-2.42 (HIV-1)
[16] = biological target: HIV-1 Env of pseudovirus Ce0682_E4 (HIV-1)
[17] = biological target: HIV-1 Env of pseudovirus 3415.v1.c1 (HIV-1)
[18] = biological target: HIV-1 Env of pseudovirus 1056_10_TA11_1826 (HIV-1)
[19] = biological target: HIV-1 Env of pseudovirus 249M B10 (HIV-1)
[20] = biological target: HIV-1 Env of pseudovirus ZM214M.PL15 (HIV-1)
[21] = biological target: HIV-1 Env of pseudovirus 6240_08_TA5_4622 (HIV-1)
[22] = biological target: HIV-1 Env of pseudovirus Du172.17 (HIV-1)
[23] = biological target: HIV-1 Env of pseudovirus Ce703010054_2A2 (HIV-1)
[24] = biological target: HIV-1 Env of pseudovirus Q259.d2.17 (HIV-1)
[25] = biological target: HIV-1 Env of pseudovirus T250-4 (HIV-1)
[26] = biological target: HIV-1 Env of pseudovirus CNE52 (HIV-1)
[27] = biological target: HIV-1 Env of pseudovirus 211-9 (HIV-1)
[28] = biological target: HIV-1 Env of pseudovirus 3365.v2.c2 (HIV-1)
[29] = biological target: HIV-1 Env of pseudovirus CNE17 (HIV-1)
[30] = biological target: HIV-1 Env of pseudovirus 246F C1G (HIV-1)
[31] = biological target: HIV-1 Env of pseudovirus 3301.v1.c24 (HIV-1)
[32] = biological target: HIV-1 Env of pseudovirus 620345.c01 (HIV-1)
[33] = biological target: HIV-1 Env of pseudovirus CNE21 (HIV-1)
[34] = biological target: HIV-1 Env of pseudovirus 9004SS_A3_4 (HIV-1)
[35] = biological target: HIV-1 Env of pseudovirus PVO.4 (HIV-1)
[36] = biological target: HIV-1 Env of pseudovirus 6041.v3.c23 (HIV-1)
[37] = biological target: HIV-1 Env of pseudovirus Q769.d22 (HIV-1)
[38] = biological target: HIV-1 Env of pseudovirus ZM109F.PB4 (HIV-1)
[39] = biological target: HIV-1 Env of pseudovirus HIV-0013095-2.11 (HIV-1)
[40] = biological target: HIV-1 Env of pseudovirus P0402_c2_11 (HIV-1)

## PGT121 (antibody)
[1]
  IC50 in TZM-bl assay: > 10 µg/mL
  IC80 in TZM-bl assay: > 10 µg/mL
[2]
  IC50 in TZM-bl assay: > 10 µg/mL
  IC80 in TZM-bl assay: > 10 µg/mL
[3]
  IC50 in TZM-bl assay: 0.038 µg/mL
  IC80 in TZM-bl assay: 0.118 µg/mL
[4]
  IC50 in TZM-bl assay: 0.017 µg/mL
  IC80 in TZM-bl assay: 0.088 µg/mL
[5]
  IC50 in TZM-bl assay: 9 µg/mL
  IC80 in TZM-bl assay: > 10 µg/mL
[6]
  IC50 in TZM-bl assay: 0.647 µg/mL
  IC80 in TZM-bl assay: 4.68 µg/mL
[7]
  IC50 in TZM-bl assay: > 10 µg/mL
  IC80 in TZM-bl assay: > 10 µg/mL
[8]
  IC80 in TZM-bl assay: 0.348 µg/mL
[9]
  IC50 in TZM-bl assay: 0.017 µg/mL
  IC80 in TZM-bl assay: 0.085 µg/mL
[10]
  IC80 in TZM-bl assay: 0.083 µg/mL
[11]
  IC50 in TZM-bl assay: 8.51 µg/mL
  IC80 in TZM-bl assay: > 10 µg/mL
[12]
  IC50 in TZM-bl assay: > 10 µg/mL
  IC80 in TZM-bl assay: > 10 µg/mL
[13]
  IC50 in TZM-bl assay: 0.03 µg/mL
  IC80 in TZM-bl assay: 0.108 µg/mL
[14]
  IC50 in TZM-bl assay: 2.63 µg/mL
  IC80 in TZM-bl assay: > 10 µg/mL
[15]
  IC50 in TZM-bl assay: 0.02 µg/mL
  IC80 in TZM-bl assay: 0.126 µg/mL
[16]
  IC50 in TZM-bl assay: > 10 µg/mL
  IC80 in TZM-bl assay: > 10 µg/mL
[17]
  IC50 in TZM-bl assay: > 10 µg/mL
  IC80 in TZM-bl assay: > 10 µg/mL
[18]
  IC50 in TZM-bl assay: 0.034 µg/mL
  IC80 in TZM-bl assay: 0.148 µg/mL
[19]
  IC50 in TZM-bl assay: > 10 µg/mL
  IC80 in TZM-bl assay: > 10 µg/mL
[20]
  IC50 in TZM-bl assay: 0.288 µg/mL
  IC80 in TZM-bl assay: 2.46 µg/mL
[21]
  IC50 in TZM-bl assay: 0.068 µg/mL
  IC80 in TZM-bl assay: 0.231 µg/mL
[22]
  IC50 in TZM-bl assay: 0.062 µg/mL
  IC80 in TZM-bl assay: 0.531 µg/mL
[23]
  IC50 in TZM-bl assay: > 10 µg/mL
  IC80 in TZM-bl assay: > 10 µg/mL
[24]
  IC50 in TZM-bl assay: 3.07 µg/mL
  IC80 in TZM-bl assay: > 10 µg/mL
[25]
  IC50 in TZM-bl assay: 3 ng/mL
  IC80 in TZM-bl assay: 9 ng/mL
[26]
  IC50 in TZM-bl assay: 4.91 µg/mL
  IC80 in TZM-bl assay: > 10 µg/mL
[27]
  IC50 in TZM-bl assay: 0.866 µg/mL
  IC80 in TZM-bl assay: 6.63 µg/mL
[28]
  IC50 in TZM-bl assay: 0.243 µg/mL
  IC80 in TZM-bl assay: 2.13 µg/mL
[29]
  IC50 in TZM-bl assay: 3.96 µg/mL
  IC80 in TZM-bl assay: > 10 µg/mL
[30]
  IC50 in TZM-bl assay: 0.082 µg/mL
  IC80 in TZM-bl assay: 0.363 µg/mL
[31]
  IC50 in TZM-bl assay: 0.013 µg/mL
  IC80 in TZM-bl assay: 0.041 µg/mL
[32]
  IC50 in TZM-bl assay: > 10 µg/mL
  IC80 in TZM-bl assay: > 10 µg/mL
[33]
  IC50 in TZM-bl assay: 9 ng/mL
  IC80 in TZM-bl assay: 0.031 µg/mL
[34]
  IC50 in TZM-bl assay: 6 ng/mL
[35]
  IC50 in TZM-bl assay: 0.094 µg/mL
  IC80 in TZM-bl assay: 0.45 µg/mL
[36]
  IC50 in TZM-bl assay: > 10 µg/mL
  IC80 in TZM-bl assay: > 10 µg/mL
[37]
  IC50 in TZM-bl assay: > 10 µg/mL
  IC80 in TZM-bl assay: > 10 µg/mL
[38]
  IC50 in TZM-bl assay: 8.92 µg/mL
  IC80 in TZM-bl assay: > 10 µg/mL
[39]
  IC50 in TZM-bl assay: > 10 µg/mL
  IC80 in TZM-bl assay: > 10 µg/mL
[40]
  IC50 in TZM-bl assay: 7 ng/mL
